From patent US20130058902A1, “DENDRITIC CELL SUBSETS FOR GENERATING INDUCED TOLEROGENIC DENDRITIC CELLS AND RELATED COMPOSITIONS AND METHODS” (Selecta Biosciences, Inc., priority 2011, published 2013)

Test system: DCs in the spleen
Experiment: Expansion of spleen DCs in donor mice inoculated with FLT-3 ligand expressing melanoma cells
Assay type: in vivo, C57BL/6 mice
Details: spleen of syngeneic donor mice inoculated 10 days earlier with FLT-3 ligand expressing melanoma cells
Excerpt: For each treatment day syngeneic donor mice were inoculated 10 days earlier with Fms-like tyrosine kinase 3 (FLT-3) ligand expressing melanoma cells s.s. (performed on days−10, 4, 18 in donor C57BL/6 age-matched mice). Flt3 ligand is a growth factor for DCs and allows for greater total number of DCs to be present in the spleen. This increased the number of DCs more than 10-fold and allowed for more cells to be available for in vitro treatment and in vivo administration.

B1: Flt3 ligand: growth factor for DCs, delivered by FLT-3 ligand expressing melanoma cells inoculated into donor mice (protein, UniProt P49772 27-232, looked up)
Fms-related tyrosine kinase 3 …: GTPDCYFSHSPISSNFKVKFRELTDHLLKDYPVTVAVNLQDEKHCKALWSLFLAQRWIEQLKTVAGSKMQTLLEDVNTEIHFVTSCTFQPLPECLRFVQTNISHLLKDTCTQLLALKPCIGKACQNFSRCLEVQCQPDSSTLLPPRSPIALEATELPEPRPRQLLLLLLLLLPLTLVLLAAAWGLRWQRARRRGELHPGVPLPSHP
- increase of the number of DCs: more than 10 fold
